This note sets out measurements from patent publication US20260248946A1 (TUOJIE BIOTECH SHANGHAI, published 2026).

Test [1] has as its target T1, human CD79B on the surface of cells (DoHH2 / DOHH-2, WSU-DLCL2) (human, UniProt P40259 29-229).
T1 sequence (looked up): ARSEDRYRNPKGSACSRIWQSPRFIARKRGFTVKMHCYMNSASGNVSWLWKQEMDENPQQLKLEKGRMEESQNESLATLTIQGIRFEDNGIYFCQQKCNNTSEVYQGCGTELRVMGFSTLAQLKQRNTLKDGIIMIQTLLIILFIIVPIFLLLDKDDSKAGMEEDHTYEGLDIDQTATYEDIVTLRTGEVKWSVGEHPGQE
Nature of the test: cell-based or functional assay.

Test [2] concerns the target T1, human CD79B on the surface of cells …. Nature of the test: cell-based or functional assay. This is another data set of the same source.

B1: ADC-7 (antibody, human IgG1, kappa, V domains shown)
VH: EVQLVQSGAEVKKPGSSVKVSCKASGSSFSSYGINWVKQAPGQGLEWIGEIFPRSGNTYYNEKFEGRATLTADKSTSTAYMELRSLRSEDTAVYYCAKGDLGDFDYWGQGTTVTVSS
VL: DFVMTQTPLSLPVTPGEPASISCRSSQSIVHSDGNTYFEWYLQKPGQSPKLLIYKVSNRFSGVPDRFSGSGSGTDFTLKISRVEAEDVGVYYCFQGSHVPWTFGGGTKVEIKR
modifications: compound D coupled to cysteines after TCEP reduction; positions not given; compound D (exatecan-type linker-drug, Topo I inhibitor) coupled to cysteines after TCEP reduction; positions not given; mean n=5.84 per antibody
B1: in test [1], the “Endocytosis rate (4 h), DoHH2 cells” value was determined as 68%. Besides, in test [2], the “IC50 of in vitro proliferation, DoHH2 cells (MTT, 72 h)” value (“IC50 … DoHH2 cells (MTT, 72 h)” for short) is 2 ng/mL and the “IC50 of in vitro proliferation, WSU-DLCL2 cells (MTT, 72 h)” value (shortened to “IC50 … WSU-DLCL2 cells (MTT, 72 h)”) was determined as 53.4 ng/mL.

B2: ADC-3 (antibody, human IgG1, kappa, V domains shown)
VH: EVQLVQSGAEVKKPGSSVKVSCKASGSSFSSYGINWVKQAPGQGLEWIGEIFPRSGNTYYNEKFEGRATLTADKSTSTAYMELRSLRSEDTAVYYCAKGDLGDFDYWGQGTTVTVSS
VL: DFVMTQTPLSLPVTPGEPASISCRSSQSIVHSDGNTYFEWYLQKPGQSPKLLIYKVSNRFSGVPDRFSGSGSGTDFTLKISRVEAEDVGVYYCFQGSHVPWTFGGGTKVEIKR
modifications: MC-vc-PAB-MMAE coupled to cysteines after TCEP reduction; positions not given; MC-vc-PAB-MMAE coupled to cysteines after TCEP reduction; positions not given; mean n=3.09 per antibody
notes: Antibody-drug conjugate of hAb015-10; DAR 3.09; also called hAb015-10-cys-MC-vc-PAB-MMAE
In the case of B2, the “Endocytosis rate (4 h), DoHH2 cells” value in test [1] was 70%. Besides, in test [2], the “IC50 … DoHH2 cells (MTT, 72 h)” value came out at 3.3 ng/mL and the “IC50 … WSU-DLCL2 cells (MTT, 72 h)” value is 5.9 ng/mL.

B3: ADC-5 (antibody, human IgG1, kappa, V domains shown)
VH: EVQLVQSGAEVKKPGSSVKVSCKASGSSFSSYGINWVKQAPGQGLEWIGEIFPRSGNTYYNEKFEGRATLTADKSTSTAYMELRSLRSEDTAVYYCAKGDLGDFDYWGQGTTVTVSS
VL: DFVMTQTPLSLPVTPGEPASISCRSSQSIVHSDGNTYFEWYLQKPGQSPKLLIYKVSNRFSGVPDRFSGSGSGTDFTLKISRVEAEDVGVYYCFQGSHVPWTFGGGTKVEIKR
modifications: compound D coupled to cysteines after TCEP reduction; positions not given; compound D (exatecan-type linker-drug, Topo I inhibitor) coupled to cysteines after TCEP reduction; positions not given; mean n=1.81 per antibody
notes: Antibody-drug conjugate of hAb015-10; also called HAB015-10-cys-D, with a DAR value of about 2
As to B3, the “Endocytosis rate (4 h), DoHH2 cells” value in test [1] is 76%. Besides, in test [2], the “IC50 … DoHH2 cells (MTT, 72 h)” value came to 8.5 ng/mL and the “IC50 … WSU-DLCL2 cells (MTT, 72 h)” value was 68.3 ng/mL.

B4: ADC-6 (antibody, human IgG1, kappa, V domains shown)
VH: EVQLVQSGAEVKKPGSSVKVSCKASGSSFSSYGINWVKQAPGQGLEWIGEIFPRSGNTYYNEKFEGRATLTADKSTSTAYMELRSLRSEDTAVYYCAKGDLGDFDYWGQGTTVTVSS
VL: DFVMTQTPLSLPVTPGEPASISCRSSQSIVHSDGNTYFEWYLQKPGQSPKLLIYKVSNRFSGVPDRFSGSGSGTDFTLKISRVEAEDVGVYYCFQGSHVPWTFGGGTKVEIKR
modifications: compound D coupled to cysteines after TCEP reduction; positions not given; compound D (exatecan-type linker-drug, Topo I inhibitor) coupled to cysteines after TCEP reduction; positions not given; mean n=3.46 per antibody
B4: in test [1], the “Endocytosis rate (4 h), DoHH2 cells” value came out at 75%. In test [2], the “IC50 … DoHH2 cells (MTT, 72 h)” value amounted to 3.3 ng/mL and the “IC50 … WSU-DLCL2 cells (MTT, 72 h)” value came out at 54.2 ng/mL.

B5: ADC-4 (antibody, human IgG1, kappa, V domains shown)
VH: EVQLVQSGAEVKKPGSSVKVSCKASGSSFSSYGINWVKQAPGQGLEWIGEIFPRSGNTYYNEKFEGRATLTADKSTSTAYMELRSLRSEDTAVYYCAKGDLGDFDYWGQGTTVTVSS
VL: DFVMTQTPLSLPVTPGEPASISCRSSQSIVHSDGNTYFEWYLQKPGQSPKLLIYKVSNRFSGVPDRFSGSGSGTDFTLKISRVEAEDVGVYYCFQGSHVPWTFGGGTKVEIKR
modifications: compound C coupled to cysteines after TCEP reduction; positions not given; compound C (linker-drug) coupled to cysteines after TCEP reduction; positions not given; mean n=4.52 per antibody
notes: Antibody-drug conjugate of hAb015-10; DAR 4.52; also called hAb015-10-cys-C
In the case of B5, in test [1], the “Endocytosis rate (4 h), DoHH2 cells” value was 81%.

B6: ADC-1 (antibody, human IgG1, kappa, V domains shown)
VH: EVQLVQSGAEVKKPGSSVKVSCKASGSSFSSYGINWVKQAPGQGLEWIGEIFPRSGNTYYNEKFEGRATLTADKSTSTAYMELRSLRSEDTAVYYCAKGDLGDFDYWGQGTTVTVSS
VL: DFVMTQTPLSLPVTPGEPASISCRSSQSIVHSDGNTYFEWYLQKPGQSPKLLIYKVSNRFSGVPDRFSGSGSGTDFTLKISRVEAEDVGVYYCFQGSHVPWTFGGGTKVEIKR
modifications: compound B coupled to cysteines after TCEP reduction; positions not given; compound B (eribulin-derivative linker-drug) coupled to cysteines after TCEP reduction; positions not given; mean n=3.06 per antibody
notes: Antibody-drug conjugate of hAb015-10; DAR 3.06; also called hAb015-10-cys-B
B6: the “Endocytosis rate (4 h), DoHH2 cells” value in test [1] is 73%.
